From patent publication US20240084003A1 come the findings set out here.

The target in this experiment is monkey CD22 on HEK293T-monkey CD22 cells (monkey). The experiment is described as follows: FACS, HEK293T-monkey CD22 cells.
Sequence of monkey CD22 on HEK293T-monkey CD22 cells (monkey) (chain, as listed by the source limits assumed): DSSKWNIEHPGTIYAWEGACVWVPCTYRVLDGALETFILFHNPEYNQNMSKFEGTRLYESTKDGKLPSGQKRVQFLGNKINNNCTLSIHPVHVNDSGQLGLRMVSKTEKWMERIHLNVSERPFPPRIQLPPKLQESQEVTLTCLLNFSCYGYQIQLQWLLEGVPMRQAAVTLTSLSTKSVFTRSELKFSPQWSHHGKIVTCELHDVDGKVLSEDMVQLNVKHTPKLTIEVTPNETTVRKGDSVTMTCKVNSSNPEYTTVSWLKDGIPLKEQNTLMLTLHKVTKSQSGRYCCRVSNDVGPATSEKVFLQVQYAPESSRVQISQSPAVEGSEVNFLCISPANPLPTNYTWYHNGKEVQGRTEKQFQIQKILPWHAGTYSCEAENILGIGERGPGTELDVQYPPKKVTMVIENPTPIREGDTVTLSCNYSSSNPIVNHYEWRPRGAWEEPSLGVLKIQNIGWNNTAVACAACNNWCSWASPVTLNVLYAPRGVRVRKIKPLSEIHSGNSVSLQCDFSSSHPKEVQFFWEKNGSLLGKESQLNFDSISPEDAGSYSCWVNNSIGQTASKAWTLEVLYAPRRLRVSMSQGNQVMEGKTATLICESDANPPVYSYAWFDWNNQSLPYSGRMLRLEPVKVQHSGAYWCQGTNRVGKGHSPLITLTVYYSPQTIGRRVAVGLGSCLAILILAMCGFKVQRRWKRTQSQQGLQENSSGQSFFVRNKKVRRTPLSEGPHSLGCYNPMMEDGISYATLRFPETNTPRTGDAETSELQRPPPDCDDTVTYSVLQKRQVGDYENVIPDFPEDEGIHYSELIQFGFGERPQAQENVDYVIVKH

B1: F1.280.1 (antibody, human IgG1, kappa, V domains shown)
VH: QIQLVQSGPELKKPGETVKISCKASGYTFTTYGMSWVKQTPGKGLTWMGWINTDSGVPTYADDFKRRFAFSLEASATTAYLQINNLKNEDTATYFCARGGPDYWGQGTTLTVSS
VL: DILLTQSPATLSVTPGETVSLSCRASQSIYKNLHWYHQKSHRSPRLLIKYASDSISGIPSRFTGSGSGTNFTLSINSVKPEDEGIYYCLQGYIVPLTFGAGTKLELKR
Molecule B1 registered a Maximum mean fluorescence intensity of 1490 MFI.
